Data reported in patent US20080138818A1.

Assays:
[1] = target: Type I IFN receptor (human) (UniProt P17181); assay: cell-based or functional assay
[2] = target: T1, Type II IFN (IFN γ) receptor (human) (UniProt P15260); assay: cell-based or functional assay
T1 sequence (looked up) 1: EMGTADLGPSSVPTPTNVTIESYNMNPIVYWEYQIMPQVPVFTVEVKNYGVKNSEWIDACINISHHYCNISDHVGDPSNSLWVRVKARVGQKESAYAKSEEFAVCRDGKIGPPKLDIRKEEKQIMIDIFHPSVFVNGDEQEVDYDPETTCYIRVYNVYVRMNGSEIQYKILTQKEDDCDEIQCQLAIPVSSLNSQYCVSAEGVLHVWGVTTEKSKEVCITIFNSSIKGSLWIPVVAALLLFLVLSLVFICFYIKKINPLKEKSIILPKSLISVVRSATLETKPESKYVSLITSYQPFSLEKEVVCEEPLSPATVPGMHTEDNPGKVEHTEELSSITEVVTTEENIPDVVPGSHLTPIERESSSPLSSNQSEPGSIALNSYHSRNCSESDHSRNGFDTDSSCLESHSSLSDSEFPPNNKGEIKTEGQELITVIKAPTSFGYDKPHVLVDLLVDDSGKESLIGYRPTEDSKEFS
T1 sequence (looked up) 2: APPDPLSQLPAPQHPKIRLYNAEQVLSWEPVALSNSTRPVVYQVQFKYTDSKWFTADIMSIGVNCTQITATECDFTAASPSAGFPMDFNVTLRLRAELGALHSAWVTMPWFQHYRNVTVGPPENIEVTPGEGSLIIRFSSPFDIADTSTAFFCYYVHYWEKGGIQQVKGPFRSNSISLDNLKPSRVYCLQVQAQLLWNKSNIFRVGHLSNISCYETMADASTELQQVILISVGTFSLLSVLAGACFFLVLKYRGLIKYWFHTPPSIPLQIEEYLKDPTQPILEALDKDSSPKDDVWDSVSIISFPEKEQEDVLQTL

Chain of UniProt P17181 (P17181 28-557, chain 1 of 2): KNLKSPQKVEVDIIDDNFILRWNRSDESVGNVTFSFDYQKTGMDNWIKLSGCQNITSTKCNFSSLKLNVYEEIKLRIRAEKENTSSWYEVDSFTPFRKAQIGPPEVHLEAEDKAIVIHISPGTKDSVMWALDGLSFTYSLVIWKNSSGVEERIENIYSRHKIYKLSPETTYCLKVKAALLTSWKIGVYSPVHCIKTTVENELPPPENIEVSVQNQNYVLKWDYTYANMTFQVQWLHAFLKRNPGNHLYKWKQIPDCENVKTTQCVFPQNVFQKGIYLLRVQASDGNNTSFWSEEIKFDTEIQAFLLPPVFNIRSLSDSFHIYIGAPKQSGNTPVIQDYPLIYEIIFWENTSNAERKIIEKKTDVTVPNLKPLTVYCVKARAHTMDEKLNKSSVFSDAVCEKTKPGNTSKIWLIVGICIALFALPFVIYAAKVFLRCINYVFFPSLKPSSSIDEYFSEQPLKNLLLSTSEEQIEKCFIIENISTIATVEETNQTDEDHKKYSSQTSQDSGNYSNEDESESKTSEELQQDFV
Chain of UniProt P17181 (P48551 27-515, chain 2 of 2, further chain): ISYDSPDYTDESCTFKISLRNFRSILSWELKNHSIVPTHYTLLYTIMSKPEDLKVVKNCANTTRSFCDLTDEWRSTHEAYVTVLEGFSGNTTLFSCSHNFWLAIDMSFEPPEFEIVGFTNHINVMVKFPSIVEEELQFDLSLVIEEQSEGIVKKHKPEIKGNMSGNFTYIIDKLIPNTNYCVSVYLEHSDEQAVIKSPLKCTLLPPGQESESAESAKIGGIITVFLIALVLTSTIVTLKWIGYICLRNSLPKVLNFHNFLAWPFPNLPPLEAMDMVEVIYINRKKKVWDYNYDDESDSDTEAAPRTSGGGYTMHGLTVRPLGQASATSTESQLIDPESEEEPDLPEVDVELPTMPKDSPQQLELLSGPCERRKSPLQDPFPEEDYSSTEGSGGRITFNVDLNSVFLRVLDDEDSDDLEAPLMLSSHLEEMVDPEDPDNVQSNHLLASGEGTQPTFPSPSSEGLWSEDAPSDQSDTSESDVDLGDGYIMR

Row | Substance | RLU (Relative Luciferase Units): Fold Increase, GAS-Luc reporter in U937 cells, IFNα 1.0 IU/ml [1] [fold] | RLU (Relative Luciferase Units): Fold Increase, GAS-Luc reporter in U937 cells, IFNα 100.0 IU/ml [1] [fold] | RLU (Relative Luciferase Units): Fold Increase, GAS-Luc reporter in U266R cells Clone 2 (UIG2), IFNγ 1.0 IU/ml [2] [fold] | RLU (Relative Luciferase Units): Fold Increase, GAS-Luc reporter in U266R cells Clone 2 (UIG2), IFNγ 100 0 IU/ml (so in the source) [2] [fold] | RLU (Relative Luciferase Units): Fold Increase, GAS-Luc reporter in U937 cells, IFNγ 10.0 IU/ml [2] [fold] | RLU (Relative Luciferase Units): Fold Increase, GAS-Luc reporter in U937 cells, IFNγ 100 0 IU/ml (so in the source) [2] [fold] | fold increase in RLU, IRF-Luc reporter in U937 cells Clone #2 (IRF-Luc2), IFNγ [2] [fold]
1 | human IFNα (ligand) | 1.5 | 3 | – | – | – | – | –
2 | human interferon gamma (IFNγ) (from UniProt P01579 24-166) (ligand) | – | – | 1.5 | 9 | 1.25 | 1.5 | 1.1
